Patent US20220298218A1 (ANTAG THERAPEUTICS, published 2022)
*1 amine or outer side, *2 acyl side, *3 side chain or, on linkers, in order; H or OH if unused. Where no end group is shown, it is not given here. Side-chain parts run from the residue outwards. The star is where a group is joined. C18 diacid = O=C(O)CCCCCCCCCCCCCCCCC(=O)*; C16 diacid = O=C(O)CCCCCCCCCCCCCCC(=O)*; γGlu = O=C(O)[C@H](CCC(=O)[*:2])N[*:1]; AEEA = NCCOCCOCC(=O)O

Biological target: T1, human GIP receptor (human, UniProt P48546 22-466)
T1 sequence (looked up): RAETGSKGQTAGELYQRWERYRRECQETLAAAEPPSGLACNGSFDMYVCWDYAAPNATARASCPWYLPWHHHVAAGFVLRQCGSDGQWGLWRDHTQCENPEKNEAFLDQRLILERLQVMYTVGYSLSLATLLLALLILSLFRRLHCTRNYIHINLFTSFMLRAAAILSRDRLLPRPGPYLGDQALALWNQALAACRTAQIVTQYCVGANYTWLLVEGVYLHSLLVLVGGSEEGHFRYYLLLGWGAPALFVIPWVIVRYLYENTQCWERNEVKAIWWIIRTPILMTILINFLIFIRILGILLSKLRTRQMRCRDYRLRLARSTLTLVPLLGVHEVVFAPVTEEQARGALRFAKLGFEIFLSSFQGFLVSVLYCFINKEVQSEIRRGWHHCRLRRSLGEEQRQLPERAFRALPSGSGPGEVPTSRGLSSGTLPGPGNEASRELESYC
Test: cell-based or functional assay

| Binder | cAMP antagonism [nM] | cAMP antagonism % inhib [%] | cAMP antagonism log [log M] |
| --- | --- | --- | --- |
| SGTFISDYSIAMDRIK([AEEA-AEEA-AEEA-γGlu-C18 diacid])QQDFVNWLLAQRGRRNDW-OH (N-terminus assumed; SMILES CC[C@H](C)[C@H](NC(=O)[C@H](CO)NC(=O)[C@H](Cc1ccc(O)cc1)NC(=O)[C@H](CC(=O)O)NC(=O)[C@H](CO)NC(=O)[C@@H](NC(=O)[C@H](Cc1ccccc1)NC(=O)[C@@H](NC(=O)CNC(=O)[C@@H](N)CO)[C@@H](C)O)[C@@H](C)CC)C(=O)N[C@@H](C)C(=O)N[C@@H](CCSC)C(=O)N[C@@H](CC(=O)O)C(=O)N[C@@H](CCCNC(=N)N)C(=O)N[C@H](C(=O)N[C@@H](CCCCNC(=O)COCCOCCNC(=O)COCCOCCNC(=O)COCCOCCNC(=O)CC[C@H](NC(=O)CCCCCCCCCCCCCCCCC(=O)O)C(=O)O)C(=O)N[C@@H](CCC(N)=O)C(=O)N[C@@H](CCC(N)=O)C(=O)N[C@@H](CC(=O)O)C(=O)N[C@@H](Cc1ccccc1)C(=O)N[C@H](C(=O)N[C@@H](CC(N)=O)C(=O)N[C@@H](Cc1c[nH]c2ccccc12)C(=O)N[C@@H](CC(C)C)C(=O)N[C@@H](CC(C)C)C(=O)N[C@@H](C)C(=O)N[C@@H](CCC(N)=O)C(=O)N[C@@H](CCCNC(=N)N)C(=O)NCC(=O)N[C@@H](CCCNC(=N)N)C(=O)N[C@@H](CCCNC(=N)N)C(=O)N[C@@H](CC(N)=O)C(=O)N[C@@H](CC(=O)O)C(=O)N[C@@H](Cc1c[nH]c2ccccc12)C(=O)O)C(C)C)[C@@H](C)CC) [AT426] | 28 | 80 | -7.6 |
| SGTFISDYSIAMDKIK([AEEA-AEEA-AEEA-γGlu-C18 diacid])QQDFVNWLLAQKGPSSGAPPPS-OH (N-terminus assumed; SMILES CC[C@H](C)[C@H](NC(=O)[C@H](CO)NC(=O)[C@H](Cc1ccc(O)cc1)NC(=O)[C@H](CC(=O)O)NC(=O)[C@H](CO)NC(=O)[C@@H](NC(=O)[C@H](Cc1ccccc1)NC(=O)[C@@H](NC(=O)CNC(=O)[C@@H](N)CO)[C@@H](C)O)[C@@H](C)CC)C(=O)N[C@@H](C)C(=O)N[C@@H](CCSC)C(=O)N[C@@H](CC(=O)O)C(=O)N[C@@H](CCCCN)C(=O)N[C@H](C(=O)N[C@@H](CCCCNC(=O)COCCOCCNC(=O)COCCOCCNC(=O)COCCOCCNC(=O)CC[C@H](NC(=O)CCCCCCCCCCCCCCCCC(=O)O)C(=O)O)C(=O)N[C@@H](CCC(N)=O)C(=O)N[C@@H](CCC(N)=O)C(=O)N[C@@H](CC(=O)O)C(=O)N[C@@H](Cc1ccccc1)C(=O)N[C@H](C(=O)N[C@@H](CC(N)=O)C(=O)N[C@@H](Cc1c[nH]c2ccccc12)C(=O)N[C@@H](CC(C)C)C(=O)N[C@@H](CC(C)C)C(=O)N[C@@H](C)C(=O)N[C@@H](CCC(N)=O)C(=O)N[C@@H](CCCCN)C(=O)NCC(=O)N1CCC[C@H]1C(=O)N[C@@H](CO)C(=O)N[C@@H](CO)C(=O)NCC(=O)N[C@@H](C)C(=O)N1CCC[C@H]1C(=O)N1CCC[C@H]1C(=O)N1CCC[C@H]1C(=O)N[C@@H](CO)C(=O)O)C(C)C)[C@@H](C)CC) [AT438] | 54 | 100 | -7.3 |
| SGTFISDYSIAMDKIK([AEEA-AEEA-AEEA-γGlu-C16 diacid])QQDFVNWLLAQKGPSSGAPPPS-OH (N-terminus assumed; SMILES CC[C@H](C)[C@H](NC(=O)[C@H](CO)NC(=O)[C@H](Cc1ccc(O)cc1)NC(=O)[C@H](CC(=O)O)NC(=O)[C@H](CO)NC(=O)[C@@H](NC(=O)[C@H](Cc1ccccc1)NC(=O)[C@@H](NC(=O)CNC(=O)[C@@H](N)CO)[C@@H](C)O)[C@@H](C)CC)C(=O)N[C@@H](C)C(=O)N[C@@H](CCSC)C(=O)N[C@@H](CC(=O)O)C(=O)N[C@@H](CCCCN)C(=O)N[C@H](C(=O)N[C@@H](CCCCNC(=O)COCCOCCNC(=O)COCCOCCNC(=O)COCCOCCNC(=O)CC[C@H](NC(=O)CCCCCCCCCCCCCCC(=O)O)C(=O)O)C(=O)N[C@@H](CCC(N)=O)C(=O)N[C@@H](CCC(N)=O)C(=O)N[C@@H](CC(=O)O)C(=O)N[C@@H](Cc1ccccc1)C(=O)N[C@H](C(=O)N[C@@H](CC(N)=O)C(=O)N[C@@H](Cc1c[nH]c2ccccc12)C(=O)N[C@@H](CC(C)C)C(=O)N[C@@H](CC(C)C)C(=O)N[C@@H](C)C(=O)N[C@@H](CCC(N)=O)C(=O)N[C@@H](CCCCN)C(=O)NCC(=O)N1CCC[C@H]1C(=O)N[C@@H](CO)C(=O)N[C@@H](CO)C(=O)NCC(=O)N[C@@H](C)C(=O)N1CCC[C@H]1C(=O)N1CCC[C@H]1C(=O)N1CCC[C@H]1C(=O)N[C@@H](CO)C(=O)O)C(C)C)[C@@H](C)CC) [AT436] | 18 | 100 | -7.7 |
| SGTFISDYSIAMDRIK([AEEA-AEEA-AEEA-γGlu-C16 diacid])QQDFVNWLLAQRGRRNDW-OH (N-terminus assumed; SMILES CC[C@H](C)[C@H](NC(=O)[C@H](CO)NC(=O)[C@H](Cc1ccc(O)cc1)NC(=O)[C@H](CC(=O)O)NC(=O)[C@H](CO)NC(=O)[C@@H](NC(=O)[C@H](Cc1ccccc1)NC(=O)[C@@H](NC(=O)CNC(=O)[C@@H](N)CO)[C@@H](C)O)[C@@H](C)CC)C(=O)N[C@@H](C)C(=O)N[C@@H](CCSC)C(=O)N[C@@H](CC(=O)O)C(=O)N[C@@H](CCCNC(=N)N)C(=O)N[C@H](C(=O)N[C@@H](CCCCNC(=O)COCCOCCNC(=O)COCCOCCNC(=O)COCCOCCNC(=O)CC[C@H](NC(=O)CCCCCCCCCCCCCCC(=O)O)C(=O)O)C(=O)N[C@@H](CCC(N)=O)C(=O)N[C@@H](CCC(N)=O)C(=O)N[C@@H](CC(=O)O)C(=O)N[C@@H](Cc1ccccc1)C(=O)N[C@H](C(=O)N[C@@H](CC(N)=O)C(=O)N[C@@H](Cc1c[nH]c2ccccc12)C(=O)N[C@@H](CC(C)C)C(=O)N[C@@H](CC(C)C)C(=O)N[C@@H](C)C(=O)N[C@@H](CCC(N)=O)C(=O)N[C@@H](CCCNC(=N)N)C(=O)NCC(=O)N[C@@H](CCCNC(=N)N)C(=O)N[C@@H](CCCNC(=N)N)C(=O)N[C@@H](CC(N)=O)C(=O)N[C@@H](CC(=O)O)C(=O)N[C@@H](Cc1c[nH]c2ccccc12)C(=O)O)C(C)C)[C@@H](C)CC) [AT424] | 35 | 100 | -7.5 |
| EGTFISDYSIAMDKIK([AEEA-AEEA-AEEA-γGlu-C16 diacid])QQDFVNWLLAQKGKKNDW-OH (N-terminus assumed; SMILES CC[C@H](C)[C@H](NC(=O)[C@H](CO)NC(=O)[C@H](Cc1ccc(O)cc1)NC(=O)[C@H](CC(=O)O)NC(=O)[C@H](CO)NC(=O)[C@@H](NC(=O)[C@H](Cc1ccccc1)NC(=O)[C@@H](NC(=O)CNC(=O)[C@@H](N)CCC(=O)O)[C@@H](C)O)[C@@H](C)CC)C(=O)N[C@@H](C)C(=O)N[C@@H](CCSC)C(=O)N[C@@H](CC(=O)O)C(=O)N[C@@H](CCCCN)C(=O)N[C@H](C(=O)N[C@@H](CCCCNC(=O)COCCOCCNC(=O)COCCOCCNC(=O)COCCOCCNC(=O)CC[C@H](NC(=O)CCCCCCCCCCCCCCC(=O)O)C(=O)O)C(=O)N[C@@H](CCC(N)=O)C(=O)N[C@@H](CCC(N)=O)C(=O)N[C@@H](CC(=O)O)C(=O)N[C@@H](Cc1ccccc1)C(=O)N[C@H](C(=O)N[C@@H](CC(N)=O)C(=O)N[C@@H](Cc1c[nH]c2ccccc12)C(=O)N[C@@H](CC(C)C)C(=O)N[C@@H](CC(C)C)C(=O)N[C@@H](C)C(=O)N[C@@H](CCC(N)=O)C(=O)N[C@@H](CCCCN)C(=O)NCC(=O)N[C@@H](CCCCN)C(=O)N[C@@H](CCCCN)C(=O)N[C@@H](CC(N)=O)C(=O)N[C@@H](CC(=O)O)C(=O)N[C@@H](Cc1c[nH]c2ccccc12)C(=O)O)C(C)C)[C@@H](C)CC) [AT416] | 52 | 90 | -7.3 |
| EGTFISDYSIAMDKIK([AEEA-AEEA-AEEA-γGlu-C16 diacid])QQDFVNWLLAQKGPSSGAPPPS-OH (N-terminus assumed; SMILES CC[C@H](C)[C@H](NC(=O)[C@H](CO)NC(=O)[C@H](Cc1ccc(O)cc1)NC(=O)[C@H](CC(=O)O)NC(=O)[C@H](CO)NC(=O)[C@@H](NC(=O)[C@H](Cc1ccccc1)NC(=O)[C@@H](NC(=O)CNC(=O)[C@@H](N)CCC(=O)O)[C@@H](C)O)[C@@H](C)CC)C(=O)N[C@@H](C)C(=O)N[C@@H](CCSC)C(=O)N[C@@H](CC(=O)O)C(=O)N[C@@H](CCCCN)C(=O)N[C@H](C(=O)N[C@@H](CCCCNC(=O)COCCOCCNC(=O)COCCOCCNC(=O)COCCOCCNC(=O)CC[C@H](NC(=O)CCCCCCCCCCCCCCC(=O)O)C(=O)O)C(=O)N[C@@H](CCC(N)=O)C(=O)N[C@@H](CCC(N)=O)C(=O)N[C@@H](CC(=O)O)C(=O)N[C@@H](Cc1ccccc1)C(=O)N[C@H](C(=O)N[C@@H](CC(N)=O)C(=O)N[C@@H](Cc1c[nH]c2ccccc12)C(=O)N[C@@H](CC(C)C)C(=O)N[C@@H](CC(C)C)C(=O)N[C@@H](C)C(=O)N[C@@H](CCC(N)=O)C(=O)N[C@@H](CCCCN)C(=O)NCC(=O)N1CCC[C@H]1C(=O)N[C@@H](CO)C(=O)N[C@@H](CO)C(=O)NCC(=O)N[C@@H](C)C(=O)N1CCC[C@H]1C(=O)N1CCC[C@H]1C(=O)N1CCC[C@H]1C(=O)N[C@@H](CO)C(=O)O)C(C)C)[C@@H](C)CC) [AT432] | 19 | 92 | -7.7 |
